Test results reported in US20260248897.

Columns and labels:
[1] = molecular target: RBD of hCoV-229E (UniProt P15423)
[2] = molecular target: RBD of SARS-CoV-2 (B lineage) (UniProt P0DTC2)
[3] = molecular target: RBD of SARS-CoV-2, on infectious virus (UniProt P0DTC2)

Substance	disulfide bond cleavage activity (remaining rate of native RBD; maleimide-PEG 2k, SDS-PAGE) [1]	disulfide bond cleavage activity (remaining rate of native RBD; maleimide-PEG 2k, SDS-PAGE) [2]	antiviral activity (number of viral copies of SARS-CoV-2 in supernatant of infected airway organoids) [3]
gene recombinant of human ERp46 (thioredoxin domain containing 5)	The order of the disulfide bond cleavage activity of the RBD of hCoV-229E from highest to lowest was PDI, ERp46, P5, Erp57, and ERp72.	The order of the disulfide bond cleavage activity of the RBD from highest to lowest was PDI, ERp46, P5, ERp72, and ERp57.	Both PDI and ERp46 inhibited the SARS-CoV-2 infection in a concentration-dependent manner.
gene recombinant of human PDI (protein disulfide isomerase)	The order of the disulfide bond cleavage activity of the RBD of hCoV-229E from highest to lowest was PDI, ERp46, P5, Erp57, and ERp72. Among these, the disulfide bond cleavage activity of PDI was significantly high.	The order of the disulfide bond cleavage activity of the RBD from highest to lowest was PDI, ERp46, P5, ERp72, and ERp57. Among these, the disulfide bond cleavage activity of PDI was significantly high.	Both PDI and ERp46 inhibited the SARS-CoV-2 infection in a concentration-dependent manner.
